Laboratory results reported in article PMC11931385, “Structural and functional analysis of cancer-associated missense variants in the retinoblastoma protein pocket domain” (The Journal of Biological Chemistry, 2025).
No end group written: not given here. TMR = tetramethyl rhodamine dye

Key:
Experiment in all cases: fluorescence polarisation; 25 °C; unlabeled Rb^P titrated against 1.5 nM TMR-E2F1^TD or 7.5 nM TMR-E7^LxCxE; 25 mM Tris pH 8.0, 200 mM NaCl, 1 mM DTT, 0.1% Tween-20; 2 min incubation; quadratic fit; apparent Kd for the variants, Kd for WT
Details in all cases: both partners purified
[1] = target: T1, Rb^P R763T (human, UniProt P06400 380-788, R763T)
T1 construct: also called variant 75
T1 sequence (looked up): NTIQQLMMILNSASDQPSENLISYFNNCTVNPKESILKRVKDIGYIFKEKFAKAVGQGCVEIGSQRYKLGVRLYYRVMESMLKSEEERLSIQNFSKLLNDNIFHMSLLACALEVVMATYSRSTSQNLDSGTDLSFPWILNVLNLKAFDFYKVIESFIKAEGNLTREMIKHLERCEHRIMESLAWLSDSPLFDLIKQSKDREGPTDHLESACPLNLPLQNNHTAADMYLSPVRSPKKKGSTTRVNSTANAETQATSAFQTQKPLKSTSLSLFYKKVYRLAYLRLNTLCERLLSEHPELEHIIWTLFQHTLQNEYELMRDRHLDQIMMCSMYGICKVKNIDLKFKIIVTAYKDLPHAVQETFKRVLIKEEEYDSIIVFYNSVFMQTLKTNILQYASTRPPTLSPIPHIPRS

[2] = target: T2, Rb^P D697E (human, UniProt P06400 380-788, D697E)
T2 construct: also called variant 62
T2 sequence (looked up): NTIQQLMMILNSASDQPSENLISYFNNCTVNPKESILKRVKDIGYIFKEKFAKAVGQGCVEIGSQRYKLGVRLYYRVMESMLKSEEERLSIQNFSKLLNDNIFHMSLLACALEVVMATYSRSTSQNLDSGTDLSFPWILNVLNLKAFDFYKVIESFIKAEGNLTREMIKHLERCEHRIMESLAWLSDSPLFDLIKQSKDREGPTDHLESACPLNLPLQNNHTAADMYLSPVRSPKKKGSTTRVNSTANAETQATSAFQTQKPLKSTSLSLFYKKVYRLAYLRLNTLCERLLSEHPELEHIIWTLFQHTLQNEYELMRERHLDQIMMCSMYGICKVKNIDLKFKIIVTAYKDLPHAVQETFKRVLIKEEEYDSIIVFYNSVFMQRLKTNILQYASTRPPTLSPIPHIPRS

[3] = target: T3, Rb^P R621H (human, UniProt P06400 380-788, R621H)
T3 construct: also called variant 42
T3 sequence (looked up): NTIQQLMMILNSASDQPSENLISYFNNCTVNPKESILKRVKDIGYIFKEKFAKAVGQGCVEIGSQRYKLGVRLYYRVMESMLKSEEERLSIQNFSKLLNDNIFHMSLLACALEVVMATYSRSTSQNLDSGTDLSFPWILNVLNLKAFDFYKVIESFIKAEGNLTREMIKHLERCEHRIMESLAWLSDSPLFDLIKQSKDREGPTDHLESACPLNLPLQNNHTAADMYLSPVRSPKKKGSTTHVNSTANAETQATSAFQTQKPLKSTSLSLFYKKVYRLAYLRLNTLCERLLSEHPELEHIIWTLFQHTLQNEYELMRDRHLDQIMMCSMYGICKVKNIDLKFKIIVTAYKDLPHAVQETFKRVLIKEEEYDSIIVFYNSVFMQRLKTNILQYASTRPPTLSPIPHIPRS

[4] = target: T4, Rb^P I703V (human, UniProt P06400 380-788, I703V)
T4 construct: also called variant 65
T4 sequence (looked up): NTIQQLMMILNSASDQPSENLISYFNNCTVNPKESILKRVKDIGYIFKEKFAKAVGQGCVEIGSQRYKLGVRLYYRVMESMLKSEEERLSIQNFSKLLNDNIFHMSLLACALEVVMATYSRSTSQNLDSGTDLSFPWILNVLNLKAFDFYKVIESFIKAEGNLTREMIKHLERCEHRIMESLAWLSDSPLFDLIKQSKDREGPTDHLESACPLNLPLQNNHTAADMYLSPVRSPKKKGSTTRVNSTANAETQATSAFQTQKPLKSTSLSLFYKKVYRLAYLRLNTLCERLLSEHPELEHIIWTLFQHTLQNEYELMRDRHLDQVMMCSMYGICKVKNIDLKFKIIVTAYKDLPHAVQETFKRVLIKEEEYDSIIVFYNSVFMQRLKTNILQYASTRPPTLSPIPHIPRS

[5] = target: T5, Rb^P K530I (human, UniProt P06400 380-788, K530I)
T5 construct: also called variant 21
T5 sequence (looked up): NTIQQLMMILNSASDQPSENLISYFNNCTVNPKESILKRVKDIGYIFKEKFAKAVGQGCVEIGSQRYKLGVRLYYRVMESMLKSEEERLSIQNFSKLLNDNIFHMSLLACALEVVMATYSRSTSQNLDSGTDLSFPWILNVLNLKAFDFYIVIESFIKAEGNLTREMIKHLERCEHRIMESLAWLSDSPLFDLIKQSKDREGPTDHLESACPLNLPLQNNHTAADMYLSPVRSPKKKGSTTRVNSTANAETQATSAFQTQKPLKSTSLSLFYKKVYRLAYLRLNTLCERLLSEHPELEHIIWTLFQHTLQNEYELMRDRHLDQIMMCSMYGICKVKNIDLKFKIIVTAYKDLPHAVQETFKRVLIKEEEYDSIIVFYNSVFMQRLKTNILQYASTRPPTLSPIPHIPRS

B1: TMR-E2F1^TD, peptide of the E2F1 transactivation domain (peptide)
peptide: {TMR}-GEGIRDLFDCDFGDLTPLD
notes: also called E2F^TD; source: synthetic peptide, bought: GenScript
[1]
  Kd: 37 nM
[2]
  Kd: 29 nM
[3]
  Kd: 30 nM
[4]
  Kd: 20 nM
[5]
  Kd: 945 nM

B2: TMR-E7^LxCxE, LxCxE peptide of the E7 oncoprotein from HPV (peptide)
peptide: DLYCYEQLN
modifications: also: TMR label, position not given here
notes: source: synthetic peptide, bought: GenScript
[1]
  Kd: 21 nM
[2]
  Kd: 9 nM
[3]
  Kd: 10 nM
[4]
  Kd: 21 nM
[5]
  Kd: 8 nM
